{"source": "paper PMC3190825", "molecules": {"B1": {"name": "Recombinant hSiglec-5-Fc chimera (Fc fusion)", "chain": "EKPVYELQVQKSVTVQEGLCVLVPCSFSYPWRSWYSSPPLYVYWFRDGEIPYYAEVVATNNPDRRVKPETQGRFRLLGDVQKKNCSLSIGDARMEDTGSYFFRVERGRDVKYSYQQNKLNLEVTALIEKPDIHFLEPLESGRPTRLSCSLPGSCEAGPPLTFSWTGNALSPLDPETTRSSELTLTPRPEDHGTNLTCQMKRQGAQVTTERTVQLNVSYAPQTITIFRNGIALEILQNTSYLPVLEGQALRLLCDAPSNPPAHLSWFQGSPALNATPISNTGILELRRVRSAEEGGFTCRAQHPLGFLQIFLNLSVYSLPQLLGPSCSWEAEGLHCRCSFRARPAPSLCWRLEEKPLEGNSSQGSFKVNSSSAGPWANSSLILHGGLSSDLKVSCKAWNIYGSQSGSVLLLQGRSNLGTGVVPAAL", "modifications": "125I (chloramine-T method) in the assays with radiolabeled hSiglec-5"}}, "assay_in_all_cases": "SPR", "key": {"[1]": {"molecular_target": "IgABR tandem construct of protein β (group B Streptococcus)"}, "[2]": {"molecular_target": "Recombinant B6N fragment of protein β (single copy) (group B Streptococcus)"}, "[3]": {"molecular_target": "B6N tandem construct of protein β (group B Streptococcus)"}}, "data": [{"molecule": "Purified human IgA (natural protein)", "values": [{"measurement": "Kd", "setting": "[1]", "value": 61, "unit": "nM"}]}, {"molecule": "Recombinant hSiglec-5-Fc chimera (from UniProt O15389 17-441) (Fc fusion)", "values": [{"measurement": "Kd", "setting": "[2]", "value": 14, "unit": "nM"}]}, {"molecule": "B1", "values": [{"measurement": "Kd", "setting": "[3]", "value": 3.5, "unit": "nM"}]}]}
